The results in this text go back to patent publication US20090098106A1 (YEDA RESEARCH AND DEVELOPMENT, published 2009).

The labels stand for the following.
T1: TRAF2 (UniProt Q12933 1-501, limits assumed)
T1 sequence (looked up): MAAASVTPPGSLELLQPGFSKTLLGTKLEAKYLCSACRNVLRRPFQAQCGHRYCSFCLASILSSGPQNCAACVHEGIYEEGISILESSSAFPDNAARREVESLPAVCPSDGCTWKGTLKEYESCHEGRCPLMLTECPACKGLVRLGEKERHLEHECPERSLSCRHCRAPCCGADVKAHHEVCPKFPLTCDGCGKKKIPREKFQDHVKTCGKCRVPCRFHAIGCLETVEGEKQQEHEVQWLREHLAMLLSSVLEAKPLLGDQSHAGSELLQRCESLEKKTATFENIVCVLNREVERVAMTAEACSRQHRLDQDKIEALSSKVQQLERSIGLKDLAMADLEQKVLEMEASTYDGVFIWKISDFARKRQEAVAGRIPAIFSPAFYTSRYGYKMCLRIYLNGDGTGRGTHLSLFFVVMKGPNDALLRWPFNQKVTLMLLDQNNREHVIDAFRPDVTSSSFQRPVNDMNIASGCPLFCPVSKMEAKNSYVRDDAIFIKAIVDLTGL

B1: HC8 (α7) subunit of the human 20S proteasome (other, UniProt P25788 1-255, looked up)
chain: MSSIGTGYDLSASTFSPDGRVFQVEYAMKAVENSSTAIGIRCKDGVVFGVEKLVLSKLYEEGSNKRLFNVDRHVGMAVAGLLADARSLADIAREEASNFRSNFGYNIPLKHLADRVAMYVHAYTLYSAVRPFGCSFMLGSYSVNDGAQLYMIDPSGVSYGYWGCAIGKARQAAKTEIEKLQMKEMTCRDIVKEVAKIIYIVHDEVKDKAFELELSWVGELTNGRHEIVPKDIREEAEKYAKESLKEEDESDDDNM
notes: Yeast two-hybrid: prey from a human bone marrow library, re-cloned into pGADT7; Co-immunoprecipitation: N-terminal HIS tag and/or C-terminal myc tag (pCDNA3); also called human C8
B2: NIK-N terminus (amino acids 1-367) (other)
chain: MAVMEMACPGAPGSAVGQQKELPKPKEKTPPLGKKQSSVYKLEAVEKSPVFCGKWEILNDVITKGTAKEGSEAGPAAISIIAQAECENSQEFSPTFSERIFIAGSKQYSQSESLDQIPNNVAHATEGKMARVCWKGKRRSKARKKRKKKSSKSLAHAGVALAKPLPRTPEQESCTIPVQEDESPLGAPYVRNTPQFTKPLKEPGLGQLCFKQLGEGLRPALPRSELHKLISPLQCLNHVWKLHHPQDGGPLPLPTHPFPYSRLPHPFPFHPLQPWKPHPLESFLGKLACVDSQKPLPDPHLSKLACVDSPKPLPGPHLEPSCLSRGAHEKFSVEEYLVHALQGSVSSSQAHSLTSLAKTWAARGSRS
notes: Yeast two-hybrid bait in pGBKT7
B3: NIK kinase domain (kinase motif, amino acids 400-650) (other)
chain: ATHQLRLGRGSFGEVHRMEDKQTGFQCAVKKVRLEVFRAEELMACAGLTSPRIVPLYGAVREGPWVNIFMELLEGGSLGQLVKEQGCLPEDRALYYLGQALEGLEYLHSRRILHGDVKADNVLLSSDGSHAALCDFGHAVCLQPDGLGKSLLTGDYIPGTETHMAPEVVLGRSCDAKVDVWSSCCMMLHMLNGCHPWTQFFRGPLCLKIASEPPPVREIPPSCAPLTAQAIQEGLRKEPIHRVSAAELGGK
notes: also called kinase motif of NIK

The target of assay [1] is T2, NF-κB inducing kinase (NIK), human, full length (human, UniProt Q99558 1-947).
T2 construct: Yeast two-hybrid: cloned into pGBKT7 as bait (fusion partner not spelled out); Co-immunoprecipitation: N-terminal 6 myc tag (pCS3MTNIK) in 293T cells, or His tag in HeLa cells; also called intact NIK; wild type NIK
The assay can be described thus: yeast two-hybrid, β-gal colour, strain SFY526 (bait NIK, prey HC8). The text has this: (§1) Yeast 2 Hybrid Screening Assays: NIK or its deletions were cloned into pGBKT7 vector as bait and the preys were re-cloned into pGADT7 vector for assay in the yeast strain SFY526. The system used for screening was the Matchmaker version III (clontech). The prey was pretransformed human bone marrow library (cat# HY4053AH) pooled from 51 males/females in the age range 22-70. It belongs to a new generation of 2 hybrid libraries that offers high stringent quadruple drop out (QDO) selection along with α-gal assay. Clones growing on plates without LEU, TRP, HIS and ADE were reconfirmed by α-gal assay. Plasmids of the positive clones were prepared by lysis of the yeast cells with detergent and mechanical stress followed by phenol extraction and ethanol precipitation of the DNA. Encoded inserts from the plasmids were amplified by PCR with the primers specific for the library vector pACT2.
(§2) A yeast 2 hybrid screening was effected using intact NIK cDNA (GenBank Accession No. Y10256; SEQ ID NO: 5), NIK-C-terminus (amino acids 624-947 of SEQ ID NO: 5) or NIK-N terminus (amino acids 1-367) as a prey. The most prevalent prey which was found in these screenings was the α7 subunit (HC8) (GenBank Accession No. XM_{—}050947). […]

For assay [2], the target named is T3, NIK-C-terminus (amino acids 624-947 of SEQ ID NO: 5) (human, UniProt Q99558 624-947).
T3 construct: Yeast two-hybrid bait in pGBKT7 (fusion partner not spelled out)
T3 sequence (Q99558 624-947): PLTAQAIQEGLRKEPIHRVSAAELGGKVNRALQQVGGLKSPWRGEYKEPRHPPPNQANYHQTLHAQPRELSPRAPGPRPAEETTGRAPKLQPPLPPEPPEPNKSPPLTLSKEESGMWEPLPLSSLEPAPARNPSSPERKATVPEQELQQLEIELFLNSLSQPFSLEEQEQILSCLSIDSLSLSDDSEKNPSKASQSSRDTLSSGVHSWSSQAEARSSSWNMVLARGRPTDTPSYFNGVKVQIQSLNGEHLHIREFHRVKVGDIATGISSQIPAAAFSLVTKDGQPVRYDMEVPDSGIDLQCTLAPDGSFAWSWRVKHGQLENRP
The assay can be described thus: yeast two-hybrid, β-gal colour, strain SFY526 (bait NIK-C-ter, prey HC8).
Source text: as §1, §2

In the next assay the target is T1, TRAF2. Put plainly: yeast two-hybrid, β-gal colour, strain SFY526.
The target of assay [3] is B1. Put plainly: yeast two-hybrid, β-gal colour, strain SFY526 (bait NIK-N-ter, prey HC8).
Source text: as §1, §2

Assay [4] deals with B1. The assay can be described thus: co-immunoprecipitation from HeLa cells with anti-NIK monoclonal antibody, Western blot. On the technique in general: In western blotting, separated proteins are transferred to a membrane and probed.

B1: the binding result in assay [1] and in assay [2] was “binds” in each case.
For B2, the binding result in the assay with TRAF2 is “no binding”; in assay [3], “binds”.
Regarding B3, in assay [4], the binding result is given as “no binding”.
